Molecular target: IL-17A (24-155) protein (human, UniProt Q16552 24-155)
Test: indirect ELISA screening of hybridomas

IL-17A (24-155) protein, sequence (Q16552 24-155): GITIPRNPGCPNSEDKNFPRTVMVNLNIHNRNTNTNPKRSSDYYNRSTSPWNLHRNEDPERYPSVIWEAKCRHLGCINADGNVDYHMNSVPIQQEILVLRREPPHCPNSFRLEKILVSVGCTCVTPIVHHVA

B1: monoclonal murine antibody 13E9 (antibody, V domains shown)
VH: EVKLQESGPGLVKPSQSLSLTCTVTSYSFTSDYAWSWIRQFPGIKLEWMGYITYSGVTSYNPSLKSRISITRDTSKNQFFLQLNSVTTEDTATYYCARADYDSYYTMDYWGQGTSVTVSS
VL: DIQLTQSPLSLPVSLGDQASISCRSSQSLVHSNGNTYLHWYLQKPGQSPRLLIYKVSNRFSGVPDRFSGSGSGTDFTLKISRVEAEDLGVYFCSQSTHFWTFGGGTKLEIK
notes: Mouse hybridoma antibody purified on protein A; also called antibody secreted by hybridoma cell line LT006 (IL-17A-13E9)
B1: binds.

B2: monoclonal murine antibody 2G2 (antibody, V domains shown)
VH: EVQLEQSGSELRSPGSSVKLSCKDFDSEVFPIADMSWVRQKPGHGFEWIGDILPSFGRTIYGEKFEDKAKVDADTVSNTAYLELNSLTSEDSAIYYCARGNYGFAYWGQGTLVTVSA
VL: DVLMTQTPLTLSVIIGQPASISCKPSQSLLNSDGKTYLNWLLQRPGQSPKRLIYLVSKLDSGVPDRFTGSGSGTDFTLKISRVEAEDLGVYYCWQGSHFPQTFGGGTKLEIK
notes: Mouse hybridoma antibody purified on protein A; also called antibody secreted by hybridoma cell line LT007 (IL-17A-2G2)
B2: binds.
